T1: SF3B1 ULM5 peptide (residues 333–351), wildtype (human, UniProt O75533-1 333-351)
T1 peptide: KRKSRWDETPASQMGGSTP


Target: T1, SF3B1 ULM5 peptide (residues 333–351), …
Assay: ITC

fold reduction in binding affinity against wildtype U2AF2 UHM [fold]	Binder
~20	U2AF2 UHM E394K (domain or fragment) TEVLCLMNMVLPEELLDDEKYEEIVEDVRDECSKYGLVKSIEIPRPVDGVEVPGCGKIFVEFTSVFDCQKAMQGLTGRKFANRVVVTKYCDPDSYHRRDFW
4	U2AF2 UHM K453A (domain or fragment) TEVLCLMNMVLPEELLDDEEYEEIVEDVRDECSKYGLVKSIEIPRPVDGVEVPGCGKIFVEFTSVFDCQKAMQGLTGRAFANRVVVTKYCDPDSYHRRDFW
~100	U2AF2 UHM E397K (domain or fragment) TEVLCLMNMVLPEELLDDEEYEKIVEDVRDECSKYGLVKSIEIPRPVDGVEVPGCGKIFVEFTSVFDCQKAMQGLTGRKFANRVVVTKYCDPDSYHRRDFW
